Tests used:
Assay in all cases: pulldown
[1] = tested on: Hemagglutinin H5N1 A/duck/Hunan/795/2002 (HN-8) (Influenza A virus H5N1 (A/duck/Hunan/795/2002))
[2] = tested on: Hemagglutinins of 14 non-H5 subtypes (H1-H4, H6-H13, H15, H16; Table 1 strains) (Influenza A virus)
[3] = tested on: Hemagglutinin H5N1 A/goose/Guiyang/337/2006 (G-8) (Influenza A virus H5N1 (A/goose/Guiyang/337/2006))
[4] = tested on: Hemagglutinin H5N1 A/bar-headed goose/Qinghai/14/2008 (Hg-2) (Influenza A virus H5N1 (A/bar-headed goose/Qinghai/14/2008))
[5] = tested on: Hemagglutinin H5N1 A/Egypt/2321-NAMRU3/2007 (EG-2) (Influenza A virus H5N1 (A/Egypt/2321-NAMRU3/2007))
[6] = tested on: Hemagglutinin H5N1 A/Hubei/2010 (HB-16) (Influenza A virus H5N1 (A/Hubei/2010))
[7] = tested on: Hemagglutinin H5N2 A/American green-winged teal/California/HKWF609/2007 (A-17) (Influenza A virus H5N2 (A/American green-winged teal/California/HKWF609/2007))
[8] = tested on: Hemagglutinin H5N1 A/Hong Kong/483/97 (H-12) (Influenza A virus H5N1 (A/Hong King/483/97))
[9] = tested on: Hemagglutinin H5N8 A/duck/NY191255-59/2002 (D-14) (Influenza A virus H5N8 (A/duck/NY191255-59/2002))
[10] = tested on: Hemagglutinin H5N1 A/Japanese white-eye/Hong Kong/1038/2006 (JW-1) (Influenza A virus H5N1 (A/Japanese white-eye/Hong Kong/1038/2006))
[11] = tested on: Hemagglutinin H5N3 A/duck/Hokkaido/167/2007 (HK-12) (Influenza A virus H5N3 (A/duck/Hokkaido/167/2007))
[12] = tested on: Hemagglutinin H5N1 A/Cambodia/R0405050/2007 (C-8) (Influenza A virus H5N1 (A/Cambodia/R0405050/2007))
[13] = tested on: Hemagglutinin H5N1 A/Vietnam/1994/2004 (V-16) (Influenza A virus H5N1 (A/Vietnam/1994/2004))
[14] = tested on: Hemagglutinin H5N1 A/Indonesia/5/2005 (IN-3) (Influenza A virus H5N1 (A/Indonesia/5/2005))

Row | Sequence | binding signal [2] [%] | also measured
1 | CTTCTTCCACCCATGCCGGCTGGAGAATCC [A5] | < 20 | Kd [1]: 12.4 nM
2 | TGTCGGGGGAACAATCTGTGTTCGCTTGTC [A10] | < 20 | Kd [3]: 5.74 nM
3 | GGGGTCAACTTTTCCTTTGTCGGTTTT [A2] | < 20 | Kd [4]: 13.4 nM
4 | TGGGTTTGGAAATTGGGACACAGTGGGGCG [A7] | < 20 | Kd [5]: 1.96 nM
5 | ATTGCAAGGAGAGGCTACGGCTATGACAGA [A8] | < 20 | Kd [6]: 9.4 nM
6 | GCGAGGTTGAGCGTGGGCTACTTGGTTCAT [A11] | < 20 | Kd [7]: 3.5 nM
7 | AGTGGGTTCTTGGTGCATCCCAGGAGTACC [A1] | < 20 | Kd [8]: 25.9 nM
8 | TACTTATGTGGGCCGGTGCGTTTGCATTTT [A13] | < 20 | Kd [9]: 0.7 nM
9 | TGGATTGCACGCAGGGGCCGCTTGGCTGTC [A9] | < 20 | Kd [10]: 7.84 nM
10 | TGCACGCAGGGGCCGCTTGGGTGGAGAGGC [A12] | < 20 | Kd [11]: 3.5 nM
11 | TCACGCTTTTGGTGCATGCAGAGTTTTGTG [A4] | < 20 | Kd [12]: 43.6 nM
12 | TGGCAGTGGGTTGAGGGGAAGTCTTATTCG [A3] | < 20 | Kd [13]: 7.57 nM
13 | TGGATTCACGCGGTCTCCGCCCTTGGGTGG [A6] | < 20 | Kd [14]: 14 nM
